Results on three molecules are retold here after patent publication US20240158455A1, “MULTIPLE SCLEROSIS ASSOCIATED AUTOANTIGENS, AND USE THEREOF IN THERAPY AND DIAGNOSIS” (NEOGAP Therapeutics AB, priority 2017, published 2024).

To fix the notation:
B1: PROK2: recombinant full-length PROK2 (SEQ ID NO: 2) produced in E. coli (protein, listed as Homo sapiens)
chain: MRSLCCAPLLLLLLLPPLLLTPRAGDAAVITGACDKDSQCGGGMCCAVSIWVKSIRICTPMGKLGDSCHPLTRKNNFGNGRQERRKRKRSKRKKEVPFFGRRMHHTCPCLPGLACLRTSFNRFICLAQK
B2: RTN3: recombinant full-length RTN3 (SEQ ID NO: 3) produced in E. coli (protein, listed as Homo sapiens)
chain: MAEPSAATQSHSISSSSFGAEPSAPGGGGSPGACPALGTKSCSSSCADSFVSSSSSQPVSLFSTSQEGLSSLCSDEPSSEIMTSSFLSSSEIHNTGLTILHGEKSHVLGSQPILAKEGKDHLDLLDMKKMEKPQGTSNNVSDSSVSLAAGVHCDRPSIPASFPEHPAFLSKKIGQVEEQIDKETKNPNGVSSREAKTALDADDRFTLLTAQKPPTEYSKVEGIYTYSLSPSKVSGDDVIEKDSPESPFEVIIDKAAFDKEFKDSYKESTDDFGSWSVHTDKESSEDISETNDKLFPLRNKEAGRYPMSALLSRQFSHTNAALEEVSRCVNDMHNFTNEILTWDLVPQVKQQTDKSSDCITKTTGLDMSEYNSEIPVVNLKTSTHQKTPVCSIDGSTPITKSTGDWAEASLQQENAITGKPVPDSLNSTKEFSIKGVQGNMQKQDDTLAELPGSPPEKCDSLGSGVATVKVVLPDDHLKDEMDWQSSALGEITEADSSGESDDTVIEDITADTSFENNKIQAEKPVSIPSAVVKTGEREIKEIPSCEREEKTSKNFEELVSDSELHQDQPDILGRSPASEAACSKVPDTNVSLEDVSEVAPEKPITTENPKLPSTVSPNVFNETEFSLNVTTSAYLESLHGKNVKHIDDSSPEDLIAAFTETRDKGIVDSERNAFKAISEKMTDFKTTPPVEVLHENESGGSEIKDIGSKYSEQSKETNGSEPLGVFPTQGTPVASLDLEQEQLTIKALKELGERQVEKSTSAQRDAELPSEEVLKQTFTFAPESWPQRSYDILERNVKNGSDLGISQKPITIRETTRVDAVSSLSKTELVKKHVLARLLTDFSVHDLIFWRDVKKTGFVFGTTLIMLLSLAAFSVISVVSYLILALLSVTISFRIYKSVIQAVQKSEEGHPFKAYLDVDITLSSEAFHNYMNAAMVHINRALKLIIRLFLVEDLVDSLKLAVFMWLMTYVGAVFNGITLLILAELLIFSVPIVYEKYKTQIDHYVGIARDQTKSIVEKIQAKLPGIAKKKAE
B3: SNAP91: recombinant full-length SNAP91 (SEQ ID NO: 4) produced in E. coli (protein, listed as Homo sapiens)
chain: MSGQTLTDRIAAAQYSVTGSAVARAVCKATTHEVMGPKKKHLDYLIQATNETNVNIPQMADTLFERATNSSWVVVFKALVTTHHLMVHGNERFIQYLASRNTLFNLSNFLDKSGSHGYDMSTFIRRYSRYLNEKAFSYRQMAFDFARVKKGADGVMRTMAPEKLLKSMPILQGQIDALLEFDVHPNELTNGVINAAFMLLFKDLIKLFACYNDGVINLLEKFFEMKKGQCKDALEIYKRFLTRMTRVSEFLKVAEQVGIDKGDIPDLTQAPSSLMETLEQHLNTLEGKKPGNNEGSGAPSPLSKSSPATTVTSPNSTPAKTIDTSPPVDLFATASAAVPVSTSKPSSDLLDLQPDFSSGGAAAAAAPAPPPPAGGATAWGDLLGEDSLAALSSVPSEAQISDPFAPEPTPPTTTAEIATASASASTTTTVTAVTAEVDLFGDAFAASPGEAPAASEGAAAPATPTPVAAALDACSGNDPFAPSEGSAEAAPELDLFAMKPPETSVPVVTPTASTAPPVPATAPSPAPAVAAAAAATTAATAAATTTTTTSAATATTAPPALDIFGDLFESTPEVAAAPKPDAAPSIDLFSTDAFSSPPQGASPVPESSLTADLLSVDAFAAPSPATTASPAKVDSSGVIDLFGDAFGSSASEPQPASQAASSSSASADLLAGFGGSFMAPSPSPVTPAQNNLLQPNFEAAFGTTPSTSSSSSFDPSVFDGLGDLLMPTMAPAGQPAPVSMVPPSPAMAASKALGSDLDSSLASLVGNLGISGTTTKKGDLQWNAGEKKLTGGANWQPKVAPATWSAGVPPSAPLQGAVPPTSSVPPVAGAPSVGQPGAGFGMPPAGTGMPMMPQQPVMFAQPMMRPPFGAAAVPGTQLSPSPTPASQSPKKPPAKDPLADLNIKDFL

This experiment deals with T-cells in PBMCs from MS patients and healthy controls. In words: FluoroSpot with full-length recombinant antigens (52 patients, 24 controls), with ROC analysis. Format: cell-based, human. As to the method: FIGS. 8A-8D. IFNγ/IL-22/IL-17 Fluorospot assay comparing T-cell activation in multiple sclerosis (MS)-patients and healthy controls when stimulated with full-length recombinant antigens (FABP7, PROK2, RTN3, SNAP91). Fifty-two Multiple Sclerosis patients and 24 healthy controls were tested for T-cell activation towards recombinant full-length versions of the autoantigens in a FluoroSpot assay. FIG. 8A: FABP7 isoform 2 (SEQ ID NO:1). FIG. 8B: PROK2 (SEQ ID NO:2). FIG. 8C: RTN3 SEQ ID NO:3. FIG. 8D: SNAP91 SEQ ID NO: 4. P-values calculated using Mann-Whitney test. Staples denote mean and C195%.
FIGS. 9A-9E. ROC-curves for the full-length antigens, Sensitivity and specificity when used as a diagnostic marker. Individually, the four antigens perform similarly as diagnostic markers for disease, all reaching a sensitivity of ˜50% with a specificity of 95%. FIG. 9A: FABP7 isoform 2. FIG. 9B: PROK2. FIG. 9C: RTN3. FIG. 9D: SNAP91. FIG. 9E: Using a combination of all four antigens as a diagnostic test achieves higher sensitivity and specificity. Specifically, utilizing the ratio of IL-17 divided by the square root of IFNγ response towards the mean response to the four antigens achieves a sensitivity of 70% with a specificity of >95%.
The full-length proteins can also be used in a similar way, see FIG. 9A-D. Utilizing all four full-length antigens, using each individual's average response to the four, increases the sensitivity and specificity further (FIG. 9E). Combining different readouts, such as analyzing the ratio between IL-17 and IFNγ, can increase the sensitivity of the test further (FIG. 9E, Table 2).
Recombinant full-length versions of the antigens FABP7 (SEQ ID NO: 1), PROK2 (SEQ ID NO: 2), RTN3 (SEQ ID NO: 3), SNAP91 (SEQ ID NO: 4) were produced in E. coli in house according to standard recombinant protein production protocols and purified via his-tag purification. 52 patients and 24 controls were tested for reactivity towards the antigens in an IFNγ/IL17/IL22 FluoroSpot assay as previously described.
A second, larger, cohort was collected in order to test the full length antigens. In this cohort, 52 patients and 24 healthy controls were included. The inclusion/exclusion criteria (table 5) as well as the sampling and PBMCs isolation were the same.
The antigens (FABP7, PROK2, RTN3 and SNAP91) picked out from the screening of PrESTs described in Example 1 and 2 were selected for further testing on the full-length versions of the protein. The full-length antigens were produced by transforming plasmids encoding the antigen and a […] into Escherichia coli. After growth, the bacteria were lysed and the protein purified from the supernatant of the bacterial lysis via 6× histidine-tag purification on an immobilized metal affinity chromatography-column. The antigens were subsequently coupled to beads and endotoxin-washed as previously described.
The FluoroSpot assay was performed under sterile conditions in a cell culture hood. The cells were thawed in a water bath at 37° C. and washed with cRPMI (RPMI 1640 medium, Sigma Aldrich, containing 10% fetal calf serum, 1% 200 mM L-Glutamine, 1% 10,000 U/ml Penicillin-10 mg/ml Streptomycin). The cells were counted manually using a light-microscope (Nikon TMS-F, Nikon, Japan) and subsequently diluted in cRPMI to a concentration of 2.5×10^6 cells/ml. The FluoroSpot plate (Human IFNγ/IL-22/IL-17A FluoroSpot kit, pre-coated, Mabtech, Sweden) was washed with PBS and then blocked with cRPMI for 30 min at room temperature. The blocking cRPMI was then discarded and 100 μl fresh cRPMI was added to each well of the FluoroSpot plate. Antigen (3×10^6 beads) was added to each well in duplicates according to a specific layout. In accordance to the manufacturer's protocol, anti-CD3 was used as a positive control. Both uncoupled beads and media without stimuli was used as negative controls. PBMCs (250,000 cells) in 100 μl cRPMI were added to each well (125,000 cells for the anti-CD3). […]
Consider B1, for which the “reactivity of MS patients PBMCs versus controls, IFNγ” value is reported as “significantly higher reactivity”; the “reactivity of MS patients PBMCs versus controls, IL17 and IL22” value is “significantly higher reactivity”.
Turning to B2, the “reactivity of MS patients PBMCs versus controls, IFNγ” value is recorded as “significantly higher reactivity”; the “reactivity of MS patients PBMCs versus controls, IL17 and IL22” value is given as “significantly higher reactivity”.
Take B3: the “reactivity of MS patients PBMCs versus controls, IFNγ” value is reported as “apart from IFNγ for SNAP91”; the “reactivity of MS patients PBMCs versus controls, IL17 and IL22” value is recorded as “significantly higher reactivity”.
